T1: AnkB 28–847 (MBD + partial AI-c) (human, UniProt Q01484-2 28-847)
T1 construct: ankyrin-B (AnkB), human 220 kDa isoform, residues 28-847: MBD and a short 20-residue linker; numbers count on: human 220 kDa AnkB NM_020977.3; also called extended MBD with a short 20-residue linker; source: E. coli BL21 (DE3), purified (Ni2+-NTA, size exclusion)
T1 sequence (looked up): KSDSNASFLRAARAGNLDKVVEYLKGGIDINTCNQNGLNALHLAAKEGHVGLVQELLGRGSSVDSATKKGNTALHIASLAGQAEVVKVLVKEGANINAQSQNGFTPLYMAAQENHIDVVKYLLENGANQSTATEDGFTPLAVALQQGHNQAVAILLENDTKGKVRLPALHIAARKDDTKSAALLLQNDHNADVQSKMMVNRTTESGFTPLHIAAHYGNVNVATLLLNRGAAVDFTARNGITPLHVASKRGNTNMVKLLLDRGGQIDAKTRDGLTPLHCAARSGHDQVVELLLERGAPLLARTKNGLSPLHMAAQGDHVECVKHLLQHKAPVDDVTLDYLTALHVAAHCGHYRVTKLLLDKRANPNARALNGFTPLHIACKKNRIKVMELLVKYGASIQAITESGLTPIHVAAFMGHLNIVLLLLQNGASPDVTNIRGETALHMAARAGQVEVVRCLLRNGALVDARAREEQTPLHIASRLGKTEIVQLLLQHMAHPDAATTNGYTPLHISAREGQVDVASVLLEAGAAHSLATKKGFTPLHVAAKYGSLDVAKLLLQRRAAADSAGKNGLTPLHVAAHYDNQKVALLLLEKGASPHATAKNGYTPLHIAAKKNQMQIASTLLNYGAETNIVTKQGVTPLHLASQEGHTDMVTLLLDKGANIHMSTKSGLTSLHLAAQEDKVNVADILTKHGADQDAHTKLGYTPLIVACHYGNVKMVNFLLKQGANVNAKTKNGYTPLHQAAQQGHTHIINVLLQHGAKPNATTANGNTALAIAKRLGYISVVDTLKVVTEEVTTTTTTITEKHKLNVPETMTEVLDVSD

T2: AnkB_R13-24 (C-terminal 12 ANK repeats of AnkB) (human, UniProt Q01484-2 430-827)
T2 construct: numbers count on: human 220 kDa AnkB NM_020977.3; also called AnkB C-terminal 12 repeats; source: E. coli BL21 (DE3), purified (Ni2+-NTA, size exclusion)
T2 sequence (looked up): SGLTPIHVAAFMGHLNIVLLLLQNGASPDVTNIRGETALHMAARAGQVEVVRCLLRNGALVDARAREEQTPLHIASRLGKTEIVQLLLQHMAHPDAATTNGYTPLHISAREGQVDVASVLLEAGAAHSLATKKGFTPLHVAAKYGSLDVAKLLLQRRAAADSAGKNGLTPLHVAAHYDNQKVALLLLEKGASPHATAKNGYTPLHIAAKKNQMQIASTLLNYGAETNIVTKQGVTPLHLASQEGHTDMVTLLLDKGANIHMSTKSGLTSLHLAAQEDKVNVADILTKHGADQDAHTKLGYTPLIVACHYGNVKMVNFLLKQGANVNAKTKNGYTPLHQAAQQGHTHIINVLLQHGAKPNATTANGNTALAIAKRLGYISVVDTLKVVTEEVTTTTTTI

T3: AnkB_MBD (AnkB ANK repeats only, aa 28–827) (human, UniProt Q01484-2 28-827)
T3 construct: ankyrin-B (AnkB), human 220 kDa isoform, residues 28-827: the 24 ANK repeats (MBD), no linker; numbers count on: human 220 kDa AnkB NM_020977.3; Poor quality in 100 mM NaCl buffer; also called AnkB 28–827; source: E. coli BL21 (DE3), purified (Ni2+-NTA, size exclusion)
T3 sequence (looked up): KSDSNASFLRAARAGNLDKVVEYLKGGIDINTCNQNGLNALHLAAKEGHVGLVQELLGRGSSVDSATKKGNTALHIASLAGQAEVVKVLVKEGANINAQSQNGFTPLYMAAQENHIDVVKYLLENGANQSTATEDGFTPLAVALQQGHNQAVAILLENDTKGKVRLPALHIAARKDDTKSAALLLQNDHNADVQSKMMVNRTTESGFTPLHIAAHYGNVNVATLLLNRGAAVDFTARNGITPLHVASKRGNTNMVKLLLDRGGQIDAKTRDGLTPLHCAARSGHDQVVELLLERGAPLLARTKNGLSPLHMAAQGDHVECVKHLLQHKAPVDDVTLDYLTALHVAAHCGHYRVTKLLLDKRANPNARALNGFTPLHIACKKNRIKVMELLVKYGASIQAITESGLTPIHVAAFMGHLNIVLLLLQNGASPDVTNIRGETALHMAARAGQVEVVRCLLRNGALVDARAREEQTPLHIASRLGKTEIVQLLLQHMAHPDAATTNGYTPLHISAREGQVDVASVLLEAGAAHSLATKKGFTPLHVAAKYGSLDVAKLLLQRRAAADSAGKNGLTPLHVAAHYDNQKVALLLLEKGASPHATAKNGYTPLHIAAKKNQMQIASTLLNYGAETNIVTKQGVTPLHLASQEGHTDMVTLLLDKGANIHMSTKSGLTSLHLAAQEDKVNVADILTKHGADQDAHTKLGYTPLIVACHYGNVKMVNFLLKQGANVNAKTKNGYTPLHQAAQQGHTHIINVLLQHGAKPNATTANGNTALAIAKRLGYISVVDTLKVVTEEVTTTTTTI

B1: AnkB_AI-b (aa 865–896) (domain or fragment, human, UniProt Q01484-2 865-896, looked up)
chain: EDLKELGDDSLPSSQFLDGMNYLRYSLEGGRS
notes: numbers count on: human 220 kDa AnkB NM_020977.3; also called 32-aa fragment; source: E. coli BL21 (DE3), purified (Ni2+-NTA, size exclusion)
B2: AnkB 46-residue linker after the ANK repeats (aa 828–873, holds AI-c), as crystallised (domain or fragment, human, UniProt Q01484-2 828-873, looked up)
chain: TEKHKLNVPETMTEVLDVSDEEGDDTMTGDGGEYLRPEDLKELGDD
notes: Thr828 to Asp847 defined in the map; numbers count on: human 220 kDa AnkB NM_020977.3; Contiguous with m23 on one natural chain; also called folded back linker; source: E. coli BL21 (DE3), purified (Ni2+-NTA, size exclusion)
B3: AnkB_AI-c Asn834Lys (domain or fragment, human, UniProt Q01484-2 828-852, looked up)
chain: TEKHKLKVPETMTEVLDVSDEEGDD
notes: numbers count on: human 220 kDa AnkB NM_020977.3; source: E. coli BL21 (DE3), purified (Ni2+-NTA, size exclusion)
B4: AnkB_AI-c Met839Gln (domain or fragment, human, UniProt Q01484-2 828-852, looked up)
chain: TEKHKLNVPETQTEVLDVSDEEGDD
notes: as for B3
B5: AnkB_AI-c Leu843Gln (domain or fragment, human, UniProt Q01484-2 828-852, looked up)
chain: TEKHKLNVPETMTEVQDVSDEEGDD
notes: as for B3

What was measured:
Details in all cases: both partners purified
[1] = biological target: T1, AnkB 28–847 (MBD + partial AI-c); assay: ITC; VP-ITC MicroCal, 25 °C; proteins in 50 mM Tris-HCl pH 7.8, 1 mM DTT, 1 mM EDTA with 100 mM or 500 mM NaCl as required; who was titrated is not told
[2] = biological target: T2, AnkB_R13-24 (C-terminal 12 ANK repeats …); assay: crystal structure; one natural chain AnkB 430-873; the linker folds back on the repeats of the same chain; crystals grown at 16 °C
[3] = biological target: T3, AnkB_MBD (AnkB ANK repeats only, aa …); assay: ITC; VP-ITC MicroCal, 25 °C; proteins in 50 mM Tris-HCl pH 7.8, 1 mM DTT, 1 mM EDTA with 100 mM or 500 mM NaCl as required; who was titrated is not told

Row | Binder | binding result [3] | further results
1 | B1 |  | binding result [1]: binds
2 | B2 |  | binding result [2]: binds
3 | B3 | binds | 
4 | B4 | binds | 
5 | B5 | binds | 
